Assay: micro-CT of femur
Conditions: glycan lost; control: WT mice

B1: Dentin matrix protein 1 (DMP1): S89G (protein)
parent chain: MKTVILLVFLWGLSCALPVARYHNTESESSEERTGDLAGSPPPPTNSESSEESQASPEGQANSDHTDSSESGEELGYDRGQYRPAGGLSKSTGTGADKEDDEDDSGDDTFGDEDNDLGPEEGQWGGPSKLDSDEDSTDTTQSSEDSTSQENSAQDTPSDSKDHDSEDEADSRPEAGDSTQDSESEEQRVGGGSEGESSHGDGSEFDDEGMQSDDPESTRSDRGHARMSSAGIRSEESKGDHEPTSTQDSDDSQSVEFSSRKSFRRSHVSEEDYRGELTDSNSRETQSDSTEDTASKEESRSESQEDTAESQSQEDSPEGQDPSSESSEEAGEPSQESSSESQEGVTSESRGDNPDNTSQAGDQEDSESSEEDSLNTFSSSESQSTEEQADSESNESLSLSEESQESAQDGDSSSQEGLQSQSASTESRSQESQSEQDSRSEEDSDSQDSSRSKEESNSTGSASSSEEDIRPKNMEADSRKLIVDAYHNKPIGDQDDNDCQDGY
For B1, the “other: bone material density” value was “increases”.

From PMC4669440
